From article PMC6848931, “Exportin-1-Dependent Nuclear Export of DEAD-box Helicase DDX3X is Central to its Role in Antiviral Immunity” (Cells, 2019)
Each block holds one binder with its values, some of them ahead of it.

Biological target: Exportin-1-Ran-GTP complex (human, UniProt O14980 1-1071; P62826 1-216, Q69L)
Test: AUC; sedimentation velocity with Ran-GTP present; proteins incubated together at equimolar concentrations at 20 °C for 30 min in GF1 buffer (20 mM Tris-Cl pH 7.5, 100 mM NaCl, 5 mM MgOAc, 2 mM DTT); 40,000 rpm, 280 nm, c(s) analysis
Conditions: both partners purified

binding result: binds
B1: DDX3X(1-168) (domain or fragment)
chain: MSHVAVENALGLDQQFAGLDLNSSDNQSGGSTASKGRYIPPHLRNREATKGFYDKDSSGWSSSKDKDAYSSFGSRSDSRGKSSFFSDRGSGSRGRFDDRGRSDYDGIGSRGDRSGFGKFERGGNSRWCDKSDEDDWSKPLPPSERLEQELFSGGNTGINFEKYDDIPV
notes: DEAD-box helicase 3, X-linked (DDX3X), human, residues 1-168; The purification section names only the 1-580 constructs; the expression and purification of the 1-168 fragment are not described on their own; also called DDX3X(1–168) fragment; source: purified recombinant; truncations were cloned in pCOLD-IV for bacterial expression

binding result: binds
B2: 6His-DDX3X(1-580) (domain or fragment)
chain: MSHVAVENALGLDQQFAGLDLNSSDNQSGGSTASKGRYIPPHLRNREATKGFYDKDSSGWSSSKDKDAYSSFGSRSDSRGKSSFFSDRGSGSRGRFDDRGRSDYDGIGSRGDRSGFGKFERGGNSRWCDKSDEDDWSKPLPPSERLEQELFSGGNTGINFEKYDDIPVEATGNNCPPHIESFSDVEMGEIIMGNIELTRYTRPTPVQKHAIPIIKEKRDLMACAQTGSGKTAAFLLPILSQIYSDGPGEALRAMKENGRYGRRKQYPISLVLAPTRELAVQIYEEARKFSYRSRVRPCVVYGGADIGQQIRDLERGCHLLVATPGRLVDMMERGKIGLDFCKYLVLDEADRMLDMGFEPQIRRIVEQDTMPPKGVRHTMMFSATFPKEIQMLARDFLDEYIFLAVGRVGSTSENITQKVVWVEESDKRSFLLDLLNATGKDSLTLVFVETKKGADSLEDFLYHEGYACTSIHGDRSQRDREEALHQFRSGKSPILVATAVAARGLDISNVKHVINFDLPSDIEEYVHRIGRTGRVGNLGLATSFFNERNINITKDLLDLLVEAKQEVPSWLENMAYEHHY
notes: DEAD-box helicase 3, X-linked (DDX3X), human, residues 1-580 of the 662-residue protein; Cloned in pCOLD-IV with an N-terminal 6His tag; no removal of the tag is described; also called wild-type DDX3X(1‒580); DEAD-box helicase 3, X-linked; source: E. coli BL21(DE3), purified (Ni-NTA, Superdex 200 SEC)
